Patent EP2747783B1 (Ablynx N.V., dated 2017)
Where a chain is given by its changes, count along the chain named. Names and notes keep the numbering of the source.

Assays:
[1] = target: T1, recombinant human c-Met/Fc chimera (R&D systems) (human); test: Alphascreen; competition with 100 pM biotinylated hHGF for c-MET/Fc
T1 construct: Bought protein; also called hc-Met/Fc; hu c-Met/Fc

[2] = target: T2, human c-Met, cell membrane expressed (A549, BxPC-3, myeloma cells) (human, UniProt P08581 25-1390); test: cell-based or functional assay
T2 sequence (P08581 25-1390 limits assumed, form in doubt): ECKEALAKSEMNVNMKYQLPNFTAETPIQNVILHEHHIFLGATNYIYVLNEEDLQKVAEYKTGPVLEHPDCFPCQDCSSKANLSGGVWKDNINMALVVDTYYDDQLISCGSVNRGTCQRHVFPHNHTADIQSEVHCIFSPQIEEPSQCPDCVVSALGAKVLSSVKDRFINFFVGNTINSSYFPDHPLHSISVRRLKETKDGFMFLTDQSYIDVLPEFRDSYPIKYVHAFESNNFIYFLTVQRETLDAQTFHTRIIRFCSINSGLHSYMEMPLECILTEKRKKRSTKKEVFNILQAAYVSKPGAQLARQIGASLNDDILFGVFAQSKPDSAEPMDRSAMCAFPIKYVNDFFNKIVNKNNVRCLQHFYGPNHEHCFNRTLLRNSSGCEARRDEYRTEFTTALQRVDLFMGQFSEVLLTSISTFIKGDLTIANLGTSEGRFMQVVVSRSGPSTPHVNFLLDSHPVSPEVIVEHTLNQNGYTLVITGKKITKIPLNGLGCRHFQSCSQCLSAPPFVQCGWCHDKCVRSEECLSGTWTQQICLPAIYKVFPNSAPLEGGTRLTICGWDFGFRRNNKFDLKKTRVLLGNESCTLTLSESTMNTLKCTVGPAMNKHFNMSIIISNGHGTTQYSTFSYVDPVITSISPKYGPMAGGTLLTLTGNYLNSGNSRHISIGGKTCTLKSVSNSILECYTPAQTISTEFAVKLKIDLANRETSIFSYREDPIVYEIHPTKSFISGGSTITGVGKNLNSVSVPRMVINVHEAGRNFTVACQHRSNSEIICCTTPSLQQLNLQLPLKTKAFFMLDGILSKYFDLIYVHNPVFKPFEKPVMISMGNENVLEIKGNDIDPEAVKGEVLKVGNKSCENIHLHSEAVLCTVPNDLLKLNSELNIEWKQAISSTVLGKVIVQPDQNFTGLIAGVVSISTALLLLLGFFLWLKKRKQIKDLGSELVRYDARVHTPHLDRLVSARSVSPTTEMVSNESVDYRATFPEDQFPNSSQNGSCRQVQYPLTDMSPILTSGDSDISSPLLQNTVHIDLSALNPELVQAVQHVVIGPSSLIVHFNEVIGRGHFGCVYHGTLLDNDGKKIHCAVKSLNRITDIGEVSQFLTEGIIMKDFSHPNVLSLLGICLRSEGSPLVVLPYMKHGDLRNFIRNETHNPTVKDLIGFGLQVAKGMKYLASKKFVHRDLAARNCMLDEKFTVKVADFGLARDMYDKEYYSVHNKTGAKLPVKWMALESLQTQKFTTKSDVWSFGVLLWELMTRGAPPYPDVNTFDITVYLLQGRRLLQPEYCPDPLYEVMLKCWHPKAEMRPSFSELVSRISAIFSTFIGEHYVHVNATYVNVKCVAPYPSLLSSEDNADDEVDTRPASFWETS

[3] = target: T2, human c-Met, cell membrane expressed …; test: cell-based or functional assay; remark: listed apart in the source
[4] = target: T1, recombinant human c-Met/Fc chimera (R&D …); test: SPR (ProteOn); c-Met/Fc captured by anti-human IgG(Fc)
[5] = target: T2, human c-Met, cell membrane expressed …; test: cell-based or functional assay; remark: listed apart in the source

T1 sequence (chain, as listed by the source mutant limits assumed): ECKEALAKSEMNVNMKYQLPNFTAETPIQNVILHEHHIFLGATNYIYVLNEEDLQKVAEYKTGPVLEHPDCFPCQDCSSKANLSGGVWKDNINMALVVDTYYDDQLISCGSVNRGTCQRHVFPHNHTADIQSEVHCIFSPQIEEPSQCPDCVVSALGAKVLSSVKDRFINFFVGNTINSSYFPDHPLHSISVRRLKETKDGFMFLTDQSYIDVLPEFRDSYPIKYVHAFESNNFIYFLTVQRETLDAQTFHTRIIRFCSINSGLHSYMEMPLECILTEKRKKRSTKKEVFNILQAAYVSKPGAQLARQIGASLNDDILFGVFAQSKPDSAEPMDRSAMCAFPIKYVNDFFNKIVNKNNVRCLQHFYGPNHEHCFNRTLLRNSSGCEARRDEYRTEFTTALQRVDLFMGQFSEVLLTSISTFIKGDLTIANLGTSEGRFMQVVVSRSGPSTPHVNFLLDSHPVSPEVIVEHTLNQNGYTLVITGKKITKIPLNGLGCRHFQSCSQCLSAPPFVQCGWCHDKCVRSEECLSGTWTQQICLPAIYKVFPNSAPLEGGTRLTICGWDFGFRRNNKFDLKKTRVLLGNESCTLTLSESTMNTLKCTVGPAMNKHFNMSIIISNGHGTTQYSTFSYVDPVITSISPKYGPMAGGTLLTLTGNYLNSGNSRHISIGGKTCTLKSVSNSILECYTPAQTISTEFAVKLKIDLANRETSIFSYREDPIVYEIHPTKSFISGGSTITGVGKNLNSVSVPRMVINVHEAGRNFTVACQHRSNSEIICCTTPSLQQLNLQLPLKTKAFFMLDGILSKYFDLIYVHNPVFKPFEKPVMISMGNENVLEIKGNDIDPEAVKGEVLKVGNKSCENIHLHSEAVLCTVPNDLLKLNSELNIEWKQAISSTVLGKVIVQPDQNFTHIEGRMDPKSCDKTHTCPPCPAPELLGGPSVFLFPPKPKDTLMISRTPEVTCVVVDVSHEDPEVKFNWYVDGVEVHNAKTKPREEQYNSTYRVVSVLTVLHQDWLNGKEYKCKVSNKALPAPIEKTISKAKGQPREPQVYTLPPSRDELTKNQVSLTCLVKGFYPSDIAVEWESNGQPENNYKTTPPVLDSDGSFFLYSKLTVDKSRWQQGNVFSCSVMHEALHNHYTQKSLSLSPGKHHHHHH

B1: A007901219 (A00790105-9GS-Alb23) (bispecific antibody)
chain: DVQLVESGGGLVQPGGSLRLSCAASGFILDYYAIGWFRQAPGKEREGVLCIDASDDITYYADSVKGRFTISRDNSKNTVYLQMNSLRPEDTAVYYCATPIGLSSSCLLEYDYDYWGQGTLVTVSSGGGGSGGGSEVQLLESGGGLVQPGGSLRLSCAASGFTFRSFGMSWVRQAPGKGPEWVSSISGSGSDTLYADSVKGRFTISRDNSKNTLYLQMNSLRPEDTAVYYCTIGGSLSRSSQGTLVTVSS
notes: also called A007901219 (Alb23)
- fold improved potency as compared to 5D5 Fab v2 [1]: > 5 fold
- IC50, cMET phosphorylation assay, + HSA [2]: 4.2 nM
- IC50, cMET phosphorylation assay, - HSA [2]: 5.41 nM

B2: 04E09(L49S) (SEQ ID NO: 23) tagged with 3xFlag-His6 (VHH)
VHH: EVQLVESGGGLVQPGGSLRLSCAASGFILDYYAIGWFRQAPGKEREGVSCIDASDDITYYADSVKGRFTISRDNAKNTVYLQMNSLKPEDTGVYYCATPIGLSSSCLLEYDYDYWGQGTLVTVSS
- IC50, HGF-dependent c-Met phosphorylation [3]: 3.1 nM

B3: 04E09(C22A/C92S) (SEQ ID NO: 25) tagged with 3xFlag-His6 (VHH)
VHH: EVQLVESGGGLVQPGGSLRLSAAASGFILDYYAIGWFRQAPGKEREGVLCIDASDDITYYADSVKGRFTISRDNAKNTVYLQMNSLKPEDTGVYYSATPIGLSSSCLLEYDYDYWGQGTLVTVSSGAADYKDHDGDYKDHDIDYKDDDDKGAAHHHHHH
- IC50, HGF-dependent c-Met phosphorylation [3]: 3.8 nM

B4: 04E09(C50S/C100bG) (SEQ ID NO: 24) tagged with 3xFlag-His6 (VHH)
VHH: B2 VHH with S49L, C50S, C106G
- fold lower on-rate and off-rates against 04E09-9GS-Alb11 and 04E09 (C22A/C92S) [4]: 10 fold

B5: A007900184 (33H10-3xFLAG-His6) (VHH)
VHH: EVQLVESGGGLVQAGGSLRLSCAASGFTFDDYAIGWFRQAPGEEREGVSSISSTYGLTYYADSVKGRFTISSSNAKNTVYLQMNNLKPEDTAVYYCAATPIERLGLDAYEYDYWGQGTLVTVSS
- IC50, c-Met phosphorylation [5]: 79 nM

B6: A007901245 (VHH)
VHH: B5 VHH with A14P, S73D, A75S, N85S, K87R, E102G, R103L, L104I
- IC50, Proliferation assay, plate 1 [5]: 3.69 nM
- IC50, c-Met phosphorylation [5]: 5.41 nM

B7: A007901246 (VHH)
VHH: B5 VHH with A14P, T28A, S73D, A75S, N85S, K87R, E102G, R103L, L104I
- IC50, Proliferation assay, plate 1 [5]: 1.88 nM
- IC50, c-Met phosphorylation [5]: 3.44 nM

B8: A007901247 (VHH)
VHH: B5 VHH with A14P, E43K, S73D, A75S, N85S, K87R, E102G, R103L, L104I
- IC50, c-Met phosphorylation [5]: 12.8 nM

B9: A007901248 (VHH)
VHH: B5 VHH with A14P, T28A, E43K, S73D, A75S, N85S, K87R, E102G, R103L, L104I
- IC50, c-Met phosphorylation [5]: 11.5 nM

B10: A007901249 (VHH)
VHH: B5 VHH with A14P, E46L, S73D, A75S, N85S, K87R, E102G, R103L, L104I
- IC50, Proliferation assay, plate 2 [5]: 1.93 nM
- IC50, c-Met phosphorylation [5]: 2.81 nM

B11: A007901250 (VHH)
VHH: B5 VHH with A14P, T28A, E46L, S73D, A75S, N85S, K87R, E102G, R103L, L104I
- IC50, Proliferation assay, plate 1 [5]: 2.29 nM
- IC50, Proliferation assay, plate 2 [5]: 1.32 nM
- IC50, c-Met phosphorylation [5]: 2.34 nM

B12: A007901251 (VHH)
VHH: B5 VHH with A14P, E43K, E46L, S73D, A75S, N85S, K87R, E102G, R103L, L104I
- IC50, c-Met phosphorylation [5]: 4.98 nM

B13: A007901252 (VHH)
VHH: EVQLVESGGGLVQPGGSLRLSCAASGFAFDDYAIGWFRQAPGKERLGVSSISSTYGLTYYADSVKGRFTISSDNSKNTVYLQMNSLRPEDTAVYYCAATPIGLIGLDAYEYDYWGQGTLVTVSS
- IC50, c-Met phosphorylation [5]: 4.16 nM

B14: A007901253 (VHH)
VHH: B13 VHH with A28T, K43E, L46E, S63P
- IC50, c-Met phosphorylation [5]: 4.84 nM
